# How the values were obtained:
# Test in all cases: fluorescence anisotropy
# A3H Hap VII = A3H Hap VII (human, UniProt Q6NTF7 1-200, G105R)
# A3H Hap II = A3H Hap II (human, UniProt Q6NTF7 1-181, G105R;K121D;E178D)
# A3H Hap I K117E/K121E = A3H Hap I K117E/K121E (human, UniProt Q6NTF7 1-200, K117E;K121E)
# A3H Hap I K117E = A3H Hap I K117E (human, UniProt Q6NTF7 1-200, K117E)
# Sequence of A3H Hap I K117E (Q6NTF7 whole entry K117E): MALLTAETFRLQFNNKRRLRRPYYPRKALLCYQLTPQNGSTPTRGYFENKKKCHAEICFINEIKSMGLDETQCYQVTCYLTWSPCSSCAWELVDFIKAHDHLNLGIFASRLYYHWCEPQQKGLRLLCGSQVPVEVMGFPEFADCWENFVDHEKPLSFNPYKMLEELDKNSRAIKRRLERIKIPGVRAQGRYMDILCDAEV
# Sequence of A3H Hap II (Q6NTF7 1-181 G105R/K121D/E178D): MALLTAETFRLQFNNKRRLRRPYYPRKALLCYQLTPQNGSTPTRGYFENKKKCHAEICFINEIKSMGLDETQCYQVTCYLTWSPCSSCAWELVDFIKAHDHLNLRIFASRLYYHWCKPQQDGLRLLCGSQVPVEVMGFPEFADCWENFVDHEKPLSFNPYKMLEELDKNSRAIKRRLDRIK
# Sequence of A3H Hap I K117E/K121E (Q6NTF7 whole entry K117E/K121E): as the sequence (Q6NTF7 whole entry K117E) above, with K121E counted along it
# Sequence of A3H Hap VII (Q6NTF7 whole entry G105R): as the sequence (Q6NTF7 whole entry K117E) above, with G105R, E117K counted along it
binder,measurement,setting,value
"118 nt ssDNA (ssDNA, internal fluorescein-dT at position 37 (between S1 and S2)) DNA: GAATATAGTTTTTAGCTCAAAGTAAGTGAAGATAATTTAGAGAGTTGTAATGTGATATATGTGTATGAAAGATATAAGACTCAAAGTGAAAAGTTGTTAATGTGTGTAGATATGTTAA",Kd,A3H Hap VII,522 ± 4 nM
same,Kd,A3H Hap II,492 ± 28 nM
same,Kd,A3H Hap I K117E/K121E,1240 ± 88 nM
same,Kd,A3H Hap I K117E,3 ± 1.77 µM
